A short description of data set [1]: Haematic levels after oral administration: Ferrolat-ferrous sulphate comparison. Also noted: species or system male Wistar rats. As to conditions: rat, in vivo, 1 mg/kg. As for the experimental part: Male Wistar rats, weighing approximately 200 grammes and starved for 18 hours were taken, randomized and separated into groups of 5; each group had been sacrificed at the determined hour and blood was taken from each animal by resecting the carotid; the amount of iron in the blood of each animal of the group was determined spectrophotometrically by means of bathophenanthrolinsulphonic acid (Fe-test, Wako). The administration was carried out by a probe in an acqueous solution (5 ml/kg).
The succinyl ferroprotein derivative which was used was prepared as in example 1 (Ferrolat). It can be seen that the quantity of iron/kg. was the same for both the derivatives (Fe: 1 mg/kg).

The nature of data set [2]: Haematic levels after oral administration: Ferrolat-ferritin comparison. The class given is in vivo, male Wistar rats. Conditions: 1 mg/kg Fe oral. As for the experimental part:
Male Wistar rats, weighing approximately 200 grams and starved for 18 hours, were taken, randomized and separated into groups of 9; each group was sacrificed at the determined hour and blood was taken from each animal by resecting the carotid. The amount of iron in the blood of each animal of the group was determined spectrophotometrically by means of the Iron Colorimetric Method (Boehringer-Mannheim). The administration was carried out by a probe in an acqueous solution (5 ml/kg). Dosages and results are shown in table X. It can be seen that the quantity of iron/kg for the succinyl ferroprotein derivative indicated as Ferrolat was that of ferritin (Sigma, St. Louis, Mo.) and equal to 1 mg/kg.

The conditions of data set [3]: cited from earlier work.
The conditions of data set [4]: ferritin based treatment; cited from earlier work.
Data set [5] is described as follows: Haematic levels: comparison between succinyl ferroprotein derivatives from different types of proteins. As to conditions: two hours after administration, 1 mg/kg Fe oral. The data set is classed as in vivo, male Wistar rats. As for the experimental part: Male Wistar rats, weighing approximately 200 grams and starved for 18 hours, were taken, randomized and separated into groups of 5 (one per dose of derivative and a control group). Each group was sacrificed two hours after administration and, by resecting the carotid, blood was taken from each animal and the iron content in the blood was determined by means of bathophenanthrolinsulphonic acid Fe-test, Wako). The oral administration was carried out by a probe in an aqueous solution (5 ml/kg). The doses of individual derivatives which were used were selected so that 1 mg/kg of Fe was always administered.

In the case of `O=S(=O)([O-])[O-].[Fe+2]` [FeSO4 7H2 O, ferrous sulphate], the Serum iron came to 336.27 μg % in data set [1] (0.5 h); 272.14 μg % in data set [1] (1 h); 273.56 μg % in data set [1] (2 h); 129.50 μg % in data set [1] (4 h); 80.52 μg % in data set [1] (6 h).
For the molecule Ferritin, the Serum iron in data set [2] (1 hour after treatment) was determined as 168.79 μg/100 ml; in data set [2] (2 hours after treatment), 170.66 μg/100 ml; in data set [2] (4 hours after treatment) it was 148.08 μg/100 ml; in data set [2] (6 hours after treatment), 89.22 μg/100 ml. Further, the solubility in water entry in data set [3] is recorded as “soluble in water”. In addition, in data set [4], the gastrointestinal side effects result was “does not result in the gastrointestinal side effects”.

B1: Succ. ovalbumin: iron derivatives from succinylated egg proteins (ovalbumin) (protein, UniProt P01012 2-386, looked up)
Ovalbumin: GSIGAASMEFCFDVFKELKVHHANENIFYCPIAIMSALAMVYLGAKDSTRTQINKVVRFDKLPGFGDSIEAQCGTSVNVHSSLRDILNQITKPNDVYSFSLASRLYAEERYPILPEYLQCVKELYRGGLEPINFQTAADQARELINSWVESQTNGIIRNVLQPSSVDSQTAMVLVNAIVFKGLWEKAFKDEDTQAMPFRVTEQESKPVQMMYQIGLFRVASMASEKMKILELPFASGTMSMLVLLPDEVSGLEQLESIINFEKLTEWTSSNVMEERKIKVYLPRMKMEEKYNLTSVLMAMGITDVFSSSANLSGISSAESLKISQAVHAAHAEINEAGREVVGSAEAGVDAASVSEEFRADHPFLFCIKHIATNAVLFFGRCVSP
modifications: 95% succinylated, iron derivative 3.6% Fe
With B1, the “serum iron average values ± SE” value in data set [5] was determined as 235.82 ± 46.06 μg/100 ml.
